# Reference: doi:10.64898/2025.12.17.694860 (2025)
# T1: Trypanosoma brucei enolase (Trypanosoma brucei)
# T1 chain: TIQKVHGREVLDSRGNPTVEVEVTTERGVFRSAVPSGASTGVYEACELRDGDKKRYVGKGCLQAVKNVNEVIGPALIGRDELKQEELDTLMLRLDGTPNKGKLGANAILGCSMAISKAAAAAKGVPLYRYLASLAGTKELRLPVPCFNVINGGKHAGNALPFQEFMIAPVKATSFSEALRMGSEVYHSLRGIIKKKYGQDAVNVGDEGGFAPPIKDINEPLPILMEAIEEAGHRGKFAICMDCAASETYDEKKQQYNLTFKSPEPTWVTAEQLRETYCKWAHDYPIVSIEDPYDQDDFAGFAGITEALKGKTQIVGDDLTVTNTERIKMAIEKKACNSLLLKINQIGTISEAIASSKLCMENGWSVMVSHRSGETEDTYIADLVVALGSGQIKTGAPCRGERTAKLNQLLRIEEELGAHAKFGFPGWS
# Target: T1, Trypanosoma brucei enolase
# Test: ITC
binder,measurement,value
sdAbR1-10 (VHH) VHH: QVQLQESGGGLVQPGGSLRLSCAAPGSIFSIFSGNIMGWYRQAPGKQRDFVASISSGGATNYADSVKGRFTISRDNAKNTVYLQMNNLKPEDTAVYYCNTVGGVHTNSWGQGTQVTVSS,Kd,18.6 nM
